In publication PMC2191135:

Target: platelet membrane GPIIb-IIIa complex (alpha IIb/beta 3 integrin) (human (endogenous in platelets)) (UniProt P08514)
Test: radioligand binding

% inhibition of fibrinogen binding at 100 uM RGDS: 92%
B1: arginine, glycine, aspartic acid (RGDS) (peptide)
peptide: RGDS
